{"source": "the supplement of paper PMC9112550", "about": "“Optimization of the antimicrobial peptide Bac7 by deep mutational scanning” (BMC Biology, 2022);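 also: peptides expressed intracellularly from a pBAD plasmid library in pooled LB shake-flask culture, induced with 0.3% L-arabinose, DNA abundance read by NGS, three biological replicates, DESeq2 with apeglm shrinkage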"}
{"tested_on": "Escherichia coli TOP10", "assay": "shrunken log2 fold change of peptide-encoding DNA abundance (4.5 h post-induction vs induction); higher = less antimicrobial activity (less host growth inhibition)", "conditions": "time post-induction: 4.5 h; library: site-saturation at positions 5, 18, 19, 20"}
{"sequence": "RRIRIRPPRLPRPRPRPQHVPRP", "shrunken log2 fold change": -0.211}
{"sequence": "RRIRARPPRLPRPRPRPKEYPRP", "shrunken log2 fold change": -0.15}
{"sequence": "RRIRSRPPRLPRPRPRPMEIPRP", "shrunken log2 fold change": 0.014}
{"sequence": "RRIRQRPPRLPRPRPRPFWMPRP", "shrunken log2 fold change": 0.00494}
{"sequence": "RRIRFRPPRLPRPRPRPSEKPRP", "shrunken log2 fold change": 0.0358}
{"sequence": "RRIRIRPPRLPRPRPRPQSKPRP", "shrunken log2 fold change": -0.493}
{"sequence": "RRIRWRPPRLPRPRPRPQINPRP", "shrunken log2 fold change": -0.348}
{"sequence": "RRIRDRPPRLPRPRPRPHVSPRP", "shrunken log2 fold change": 0.27}
{"sequence": "RRIRYRPPRLPRPRPRPRTPPRP", "shrunken log2 fold change": -0.149}
{"sequence": "RRIRLRPPRLPRPRPRPGYYPRP", "shrunken log2 fold change": -0.166}
{"sequence": "RRIRLRPPRLPRPRPRPCKDPRP", "shrunken log2 fold change": -0.194}
{"sequence": "RRIRFRPPRLPRPRPRPQEQPRP", "shrunken log2 fold change": -0.0102}
{"sequence": "RRIRFRPPRLPRPRPRPLERPRP", "shrunken log2 fold change": -0.0153}
{"sequence": "RRIRGRPPRLPRPRPRPVKEPRP", "shrunken log2 fold change": 0.604}
{"sequence": "RRIRRRPPRLPRPRPRPHPSPRP", "shrunken log2 fold change": -0.0167}
{"sequence": "RRIRDRPPRLPRPRPRPCMYPRP", "shrunken log2 fold change": 0.126}
{"sequence": "RRIRSRPPRLPRPRPRPICTPRP", "shrunken log2 fold change": 0.166}
{"sequence": "RRIRERPPRLPRPRPRPGNYPRP", "shrunken log2 fold change": -0.264}
{"sequence": "RRIRDRPPRLPRPRPRPVWWPRP", "shrunken log2 fold change": -0.00968}
{"sequence": "RRIRWRPPRLPRPRPRPNKWPRP", "shrunken log2 fold change": -0.0175}
{"sequence": "RRIRSRPPRLPRPRPRPCKFPRP", "shrunken log2 fold change": -0.301}
{"sequence": "RRIRIRPPRLPRPRPRPWHVPRP", "shrunken log2 fold change": -0.0239}
{"sequence": "RRIRMRPPRLPRPRPRPPIGPRP", "shrunken log2 fold change": 0.161}
{"sequence": "RRIRPRPPRLPRPRPRPLDKPRP", "shrunken log2 fold change": -0.0324}
{"sequence": "RRIRGRPPRLPRPRPRPWFNPRP", "shrunken log2 fold change": -0.18}
{"sequence": "RRIRKRPPRLPRPRPRPDEVPRP", "shrunken log2 fold change": 1.1}
{"sequence": "RRIRQRPPRLPRPRPRPCMIPRP", "shrunken log2 fold change": -0.0196}
{"sequence": "RRIRPRPPRLPRPRPRPQSQPRP", "shrunken log2 fold change": -0.00349}
{"sequence": "RRIRMRPPRLPRPRPRPTQVPRP", "shrunken log2 fold change": 1.17}
{"sequence": "RRIRPRPPRLPRPRPRPINQPRP", "shrunken log2 fold change": -0.24}
{"sequence": "RRIRWRPPRLPRPRPRPIEFPRP", "shrunken log2 fold change": -0.0119}
{"sequence": "RRIRWRPPRLPRPRPRPWNMPRP", "shrunken log2 fold change": -0.101}
{"sequence": "RRIRTRPPRLPRPRPRPIENPRP", "shrunken log2 fold change": 0.0452}
{"sequence": "RRIRCRPPRLPRPRPRPHTRPRP", "shrunken log2 fold change": -0.372}
{"sequence": "RRIRGRPPRLPRPRPRPHWLPRP", "shrunken log2 fold change": 0.14}
{"sequence": "RRIRTRPPRLPRPRPRPGFCPRP", "shrunken log2 fold change": 0.106}
{"sequence": "RRIRQRPPRLPRPRPRPRAWPRP", "shrunken log2 fold change": 0.123}
{"sequence": "RRIRSRPPRLPRPRPRPHMIPRP", "shrunken log2 fold change": -0.961}
{"sequence": "RRIRTRPPRLPRPRPRPITCPRP", "shrunken log2 fold change": -0.223}
{"sequence": "RRIRFRPPRLPRPRPRPTITPRP", "shrunken log2 fold change": -0.513}
{"sequence": "RRIRDRPPRLPRPRPRPISMPRP", "shrunken log2 fold change": 0.0543}
{"sequence": "RRIRTRPPRLPRPRPRPTEIPRP", "shrunken log2 fold change": -0.119}
{"sequence": "RRIRKRPPRLPRPRPRPSHRPRP", "shrunken log2 fold change": -0.0303}
{"sequence": "RRIRMRPPRLPRPRPRPVMRPRP", "shrunken log2 fold change": 0.305}
{"sequence": "RRIRQRPPRLPRPRPRPVVAPRP", "shrunken log2 fold change": 0.174}
{"sequence": "RRIRIRPPRLPRPRPRPWQPPRP", "shrunken log2 fold change": -0.0185}
{"sequence": "RRIRSRPPRLPRPRPRPVHGPRP", "shrunken log2 fold change": -0.215}
{"sequence": "RRIRARPPRLPRPRPRPHKMPRP", "shrunken log2 fold change": 0.118}
{"sequence": "RRIRQRPPRLPRPRPRPGMLPRP", "shrunken log2 fold change": 0.105}
{"sequence": "RRIRARPPRLPRPRPRPNNKPRP", "shrunken log2 fold change": -0.29}
{"sequence": "RRIRDRPPRLPRPRPRPQSNPRP", "shrunken log2 fold change": -0.109}
{"sequence": "RRIRVRPPRLPRPRPRPNQHPRP", "shrunken log2 fold change": -0.289}
{"sequence": "RRIRERPPRLPRPRPRPMGCPRP", "shrunken log2 fold change": 0.111}
{"sequence": "RRIRARPPRLPRPRPRPEIHPRP", "shrunken log2 fold change": 0.756}
{"sequence": "RRIRHRPPRLPRPRPRPKCSPRP", "shrunken log2 fold change": -0.0294}
{"sequence": "RRIRARPPRLPRPRPRPSMNPRP", "shrunken log2 fold change": -0.032}
{"sequence": "RRIRHRPPRLPRPRPRPVCEPRP", "shrunken log2 fold change": 0.0977}
{"sequence": "RRIRARPPRLPRPRPRPFCWPRP", "shrunken log2 fold change": 0.401}
{"sequence": "RRIRRRPPRLPRPRPRPVPNPRP", "shrunken log2 fold change": 0.353}
{"sequence": "RRIRYRPPRLPRPRPRPIGKPRP", "shrunken log2 fold change": 0.0104}
{"sequence": "RRIRARPPRLPRPRPRPSEEPRP", "shrunken log2 fold change": 0.452}
{"sequence": "RRIRIRPPRLPRPRPRPCRCPRP", "shrunken log2 fold change": -0.319}
{"sequence": "RRIRCRPPRLPRPRPRPQNWPRP", "shrunken log2 fold change": -0.0693}
{"sequence": "RRIRMRPPRLPRPRPRPYMFPRP", "shrunken log2 fold change": -0.493}
{"sequence": "RRIRARPPRLPRPRPRPDESPRP", "shrunken log2 fold change": 0.0602}
{"sequence": "RRIRGRPPRLPRPRPRPGTVPRP", "shrunken log2 fold change": 0.206}
{"sequence": "RRIRMRPPRLPRPRPRPWYIPRP", "shrunken log2 fold change": -0.167}
{"sequence": "RRIRNRPPRLPRPRPRPDGGPRP", "shrunken log2 fold change": -0.323}
{"sequence": "RRIRVRPPRLPRPRPRPMYLPRP", "shrunken log2 fold change": -0.0313}
{"sequence": "RRIRNRPPRLPRPRPRPVGHPRP", "shrunken log2 fold change": -0.128}
{"sequence": "RRIRCRPPRLPRPRPRPGHWPRP", "shrunken log2 fold change": 0.0171}
{"sequence": "RRIRWRPPRLPRPRPRPPYPPRP", "shrunken log2 fold change": 0.0905}
{"sequence": "RRIRCRPPRLPRPRPRPGGTPRP", "shrunken log2 fold change": -0.0298}
{"sequence": "RRIRWRPPRLPRPRPRPQFGPRP", "shrunken log2 fold change": 0.0671}
{"sequence": "RRIRVRPPRLPRPRPRPTKGPRP", "shrunken log2 fold change": 0.118}
